Laboratory results: patent publication US20220356258A1 (Boehringer Ingelheim, published 2022)

T1: IL-36 receptor (IL-36R) (UniProt Q9HB29 20-335, limits assumed)
T1 construct: also called IL-1Rrp2
T1 sequence (looked up): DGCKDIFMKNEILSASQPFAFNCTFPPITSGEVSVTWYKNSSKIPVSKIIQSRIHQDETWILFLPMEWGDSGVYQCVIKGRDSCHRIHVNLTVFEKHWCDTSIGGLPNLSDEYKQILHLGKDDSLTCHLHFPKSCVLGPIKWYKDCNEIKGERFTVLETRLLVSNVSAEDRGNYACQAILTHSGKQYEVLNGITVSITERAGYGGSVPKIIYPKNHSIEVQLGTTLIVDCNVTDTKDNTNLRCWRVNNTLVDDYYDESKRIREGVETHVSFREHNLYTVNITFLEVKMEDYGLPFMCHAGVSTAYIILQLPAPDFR

B1: Spesolimab AP4 fraction (CEX acidic peak fraction AP4) (antibody, human IgG1, kappa, L234A L235A)
heavy: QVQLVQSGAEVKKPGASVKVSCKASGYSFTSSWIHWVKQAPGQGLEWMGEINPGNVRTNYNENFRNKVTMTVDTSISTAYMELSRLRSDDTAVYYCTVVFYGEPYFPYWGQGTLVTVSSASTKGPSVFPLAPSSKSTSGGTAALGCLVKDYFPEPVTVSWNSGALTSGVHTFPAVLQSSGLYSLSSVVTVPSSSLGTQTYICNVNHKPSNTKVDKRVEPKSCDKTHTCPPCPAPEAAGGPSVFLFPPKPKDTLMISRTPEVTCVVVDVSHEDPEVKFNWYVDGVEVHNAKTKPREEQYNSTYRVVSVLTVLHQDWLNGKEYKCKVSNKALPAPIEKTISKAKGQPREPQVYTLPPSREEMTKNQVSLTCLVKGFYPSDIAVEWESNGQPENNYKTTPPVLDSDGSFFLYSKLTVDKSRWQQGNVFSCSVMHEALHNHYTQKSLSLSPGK
light: QIVLTQSPGTLSLSPGERATMTCTASSSVSSSYFHWYQQKPGQAPRLWIYRTSRLASGVPDRFSGSGSGTDFTLTISRLEPEDAATYYCHQFHRSPLTFGAGTKLEIKRTVAAPSVFIFPPSDEQLKSGTASVVCLLNNFYPREAKVQWKVDNALQSGNSQESVTEQDSKDSTYSLSSTLTLSKADYEKHKVYACEVTHQGLSSPVTKSFNRGEC
notes: Humanized IgG1 anti-IL-36R antibody from CHO-DG44 cells; Cation exchange fraction, RT 16.0-18.7 min, 0.5% of total CEX area; also called most acidic fraction AP4
B2: Spesolimab AP1a fraction (CEX acidic peak fraction AP1a) (antibody, human IgG1, kappa, L234A L235A)
heavy: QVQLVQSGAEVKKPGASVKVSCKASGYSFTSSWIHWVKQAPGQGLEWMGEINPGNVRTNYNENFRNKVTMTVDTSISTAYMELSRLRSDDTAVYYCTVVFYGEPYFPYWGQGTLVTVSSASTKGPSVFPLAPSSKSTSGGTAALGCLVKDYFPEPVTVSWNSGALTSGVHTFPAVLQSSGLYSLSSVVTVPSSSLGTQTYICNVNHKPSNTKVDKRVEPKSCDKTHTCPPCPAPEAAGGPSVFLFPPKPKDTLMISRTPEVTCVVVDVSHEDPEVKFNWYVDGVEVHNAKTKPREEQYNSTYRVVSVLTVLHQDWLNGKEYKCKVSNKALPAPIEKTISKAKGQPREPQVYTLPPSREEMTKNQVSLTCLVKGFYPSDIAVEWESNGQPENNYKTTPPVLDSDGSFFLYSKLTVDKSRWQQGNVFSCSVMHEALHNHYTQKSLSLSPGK
light: B1 light
notes: IgG1; Cation exchange fraction, RT 27.3-28.2 min, 13.6% of total CEX area
B3: Spesolimab AP3b fraction (CEX acidic peak fraction AP3b) (antibody, human IgG1, kappa, L234A L235A)
heavy: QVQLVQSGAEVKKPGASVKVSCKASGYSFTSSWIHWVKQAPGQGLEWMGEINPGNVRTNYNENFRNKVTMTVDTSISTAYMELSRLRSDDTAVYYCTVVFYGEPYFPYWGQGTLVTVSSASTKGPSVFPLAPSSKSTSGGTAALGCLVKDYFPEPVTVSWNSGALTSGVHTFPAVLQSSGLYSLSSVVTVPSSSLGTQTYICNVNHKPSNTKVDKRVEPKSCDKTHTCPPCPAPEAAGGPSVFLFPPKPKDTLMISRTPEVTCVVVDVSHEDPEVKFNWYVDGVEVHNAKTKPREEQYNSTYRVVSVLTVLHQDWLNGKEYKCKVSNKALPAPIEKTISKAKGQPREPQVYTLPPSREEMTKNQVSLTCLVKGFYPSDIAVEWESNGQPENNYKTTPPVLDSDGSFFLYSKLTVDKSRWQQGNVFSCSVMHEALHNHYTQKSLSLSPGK
light: B1 light
notes: IgG1; Cation exchange fraction, RT 18.7-20.6 min, 0.8% of total CEX area
B4: Spesolimab AP1b fraction (CEX acidic peak fraction AP1b) (antibody, human IgG1, kappa, L234A L235A)
heavy: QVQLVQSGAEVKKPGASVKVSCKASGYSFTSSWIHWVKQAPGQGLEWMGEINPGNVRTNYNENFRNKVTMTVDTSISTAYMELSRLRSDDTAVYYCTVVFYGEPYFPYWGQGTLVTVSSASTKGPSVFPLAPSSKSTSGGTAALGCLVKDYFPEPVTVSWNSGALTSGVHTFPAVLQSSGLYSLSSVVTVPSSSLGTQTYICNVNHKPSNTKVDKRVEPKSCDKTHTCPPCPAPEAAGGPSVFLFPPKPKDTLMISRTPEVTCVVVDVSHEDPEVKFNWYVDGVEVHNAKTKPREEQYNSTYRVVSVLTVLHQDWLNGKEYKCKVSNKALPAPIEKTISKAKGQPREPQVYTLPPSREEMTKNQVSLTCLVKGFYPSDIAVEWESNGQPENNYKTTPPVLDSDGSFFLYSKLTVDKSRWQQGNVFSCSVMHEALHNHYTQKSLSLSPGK
light: B1 light
notes: IgG1; Cation exchange fraction, RT 26.0-27.3 min, 7.6% of total CEX area
B5: Spesolimab BP2 fraction (CEX basic peak fraction BP2) (antibody, human IgG1, kappa, L234A L235A)
heavy: not shown
light: B1 light
notes: IgG1; Cation exchange fraction, RT 31.7-33.5 min, 2.4% of total CEX area
B6: Spesolimab MP fraction (CEX main peak fraction) (antibody, human IgG1, kappa, L234A L235A)
heavy: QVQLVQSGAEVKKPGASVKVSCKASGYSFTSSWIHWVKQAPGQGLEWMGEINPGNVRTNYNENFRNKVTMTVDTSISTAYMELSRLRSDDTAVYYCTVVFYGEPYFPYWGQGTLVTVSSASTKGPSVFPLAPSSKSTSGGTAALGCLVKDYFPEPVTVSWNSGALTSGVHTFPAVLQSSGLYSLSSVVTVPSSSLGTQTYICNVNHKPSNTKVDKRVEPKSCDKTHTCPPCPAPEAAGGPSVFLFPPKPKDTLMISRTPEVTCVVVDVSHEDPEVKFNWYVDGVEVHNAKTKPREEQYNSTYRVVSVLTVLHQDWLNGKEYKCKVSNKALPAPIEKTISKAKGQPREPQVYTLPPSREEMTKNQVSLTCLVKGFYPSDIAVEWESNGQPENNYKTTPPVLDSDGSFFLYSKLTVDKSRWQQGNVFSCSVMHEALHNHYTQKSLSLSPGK
light: B1 light
notes: IgG1
B7: Spesolimab CMC2 source (Drug Substance source material, unfractionated) (antibody, human IgG1, kappa, L234A L235A)
heavy: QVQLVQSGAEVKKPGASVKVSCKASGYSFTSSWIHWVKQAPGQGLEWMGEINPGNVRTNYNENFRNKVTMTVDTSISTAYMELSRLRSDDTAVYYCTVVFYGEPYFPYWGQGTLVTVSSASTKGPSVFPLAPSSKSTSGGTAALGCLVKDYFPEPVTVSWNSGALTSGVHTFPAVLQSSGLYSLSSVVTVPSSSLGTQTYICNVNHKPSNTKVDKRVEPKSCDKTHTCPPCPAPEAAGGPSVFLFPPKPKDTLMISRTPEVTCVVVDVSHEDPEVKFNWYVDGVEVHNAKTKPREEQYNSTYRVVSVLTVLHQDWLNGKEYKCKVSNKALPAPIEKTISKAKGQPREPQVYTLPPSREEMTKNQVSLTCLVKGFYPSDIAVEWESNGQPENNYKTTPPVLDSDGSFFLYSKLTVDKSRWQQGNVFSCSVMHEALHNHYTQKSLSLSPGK
light: B1 light
notes: Humanized monoclonal IgG1 anti-IL-36R antibody, CAS 2097104-58-8, produced in CHO-DG44 cells; This is the unfractionated material from which the CEX fractions were collected
B8: Spesolimab BP1 fraction (CEX basic peak fraction BP1) (antibody, human IgG1, kappa, L234A L235A)
heavy: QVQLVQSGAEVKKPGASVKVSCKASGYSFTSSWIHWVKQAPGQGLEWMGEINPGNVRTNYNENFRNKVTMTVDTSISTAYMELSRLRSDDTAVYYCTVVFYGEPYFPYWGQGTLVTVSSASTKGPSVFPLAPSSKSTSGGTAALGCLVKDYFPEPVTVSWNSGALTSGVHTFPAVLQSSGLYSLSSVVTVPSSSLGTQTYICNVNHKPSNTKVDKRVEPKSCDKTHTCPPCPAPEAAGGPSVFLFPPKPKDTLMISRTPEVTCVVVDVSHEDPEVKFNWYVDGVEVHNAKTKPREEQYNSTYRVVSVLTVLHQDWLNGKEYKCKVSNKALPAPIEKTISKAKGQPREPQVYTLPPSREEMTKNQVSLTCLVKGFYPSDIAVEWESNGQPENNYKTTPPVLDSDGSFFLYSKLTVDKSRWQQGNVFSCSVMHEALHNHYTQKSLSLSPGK
light: B1 light
notes: IgG1; Cation exchange fraction, RT 30.2-31.7 min, 3.75% of total CEX area
B9: Spesolimab AP1c fraction (CEX acidic peak fraction AP1c) (antibody, human IgG1, kappa, L234A L235A)
heavy: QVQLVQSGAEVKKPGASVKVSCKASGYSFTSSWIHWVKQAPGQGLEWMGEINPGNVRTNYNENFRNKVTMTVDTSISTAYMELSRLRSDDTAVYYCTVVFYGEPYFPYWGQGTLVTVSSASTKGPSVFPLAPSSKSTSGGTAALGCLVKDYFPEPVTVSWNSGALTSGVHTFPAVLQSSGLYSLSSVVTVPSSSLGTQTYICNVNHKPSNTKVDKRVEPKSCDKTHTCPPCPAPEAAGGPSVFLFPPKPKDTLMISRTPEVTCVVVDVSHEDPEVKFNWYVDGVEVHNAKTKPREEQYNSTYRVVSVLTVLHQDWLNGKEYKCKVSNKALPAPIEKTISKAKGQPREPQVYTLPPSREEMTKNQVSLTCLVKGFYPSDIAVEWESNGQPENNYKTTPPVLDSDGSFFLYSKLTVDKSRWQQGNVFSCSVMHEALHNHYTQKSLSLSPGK
light: B1 light
notes: IgG1; Cation exchange fraction, RT 24.1-26.0 min, 2.2% of total CEX area
B10: Spesolimab AP3a fraction (CEX acidic peak fraction AP3a) (antibody, human IgG1, kappa, L234A L235A)
heavy: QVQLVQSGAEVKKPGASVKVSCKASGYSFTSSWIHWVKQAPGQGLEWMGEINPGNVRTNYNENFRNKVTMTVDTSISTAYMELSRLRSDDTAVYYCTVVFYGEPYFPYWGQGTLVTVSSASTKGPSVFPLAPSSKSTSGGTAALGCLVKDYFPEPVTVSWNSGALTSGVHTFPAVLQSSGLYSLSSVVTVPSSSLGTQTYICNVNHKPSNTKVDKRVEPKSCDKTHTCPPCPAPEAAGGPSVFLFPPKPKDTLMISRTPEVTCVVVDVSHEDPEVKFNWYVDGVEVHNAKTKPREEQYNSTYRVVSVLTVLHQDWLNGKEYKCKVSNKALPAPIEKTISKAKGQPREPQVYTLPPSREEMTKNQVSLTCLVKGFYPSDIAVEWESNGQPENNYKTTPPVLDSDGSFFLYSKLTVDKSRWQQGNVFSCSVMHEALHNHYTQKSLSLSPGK
light: B1 light
notes: IgG1; Cation exchange fraction, RT 20.6-22.7 min, 2.8% of total CEX area
B11: Spesolimab AP2 fraction (CEX acidic peak fraction AP2) (antibody, human IgG1, kappa, L234A L235A)
heavy: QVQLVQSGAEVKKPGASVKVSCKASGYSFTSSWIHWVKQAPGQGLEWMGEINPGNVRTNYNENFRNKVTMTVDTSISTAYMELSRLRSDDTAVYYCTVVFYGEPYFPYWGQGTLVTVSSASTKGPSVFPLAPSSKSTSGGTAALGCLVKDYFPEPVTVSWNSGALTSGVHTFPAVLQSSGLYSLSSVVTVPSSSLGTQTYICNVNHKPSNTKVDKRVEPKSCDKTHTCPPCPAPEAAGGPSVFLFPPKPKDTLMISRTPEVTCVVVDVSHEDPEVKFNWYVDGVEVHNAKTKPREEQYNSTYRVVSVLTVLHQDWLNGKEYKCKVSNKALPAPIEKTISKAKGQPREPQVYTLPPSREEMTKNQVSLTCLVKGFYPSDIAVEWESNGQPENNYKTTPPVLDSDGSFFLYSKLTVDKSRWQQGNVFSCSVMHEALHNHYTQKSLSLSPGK
light: B1 light
notes: IgG1; Cation exchange fraction, RT 22.7-24.1 min, 2.4% of total CEX area
B12: Spesolimab BP3 fraction (CEX basic peak fraction BP3) (antibody, human IgG1, kappa, L234A L235A)
heavy: not shown
light: B1 light
notes: IgG1; Cation exchange fraction, RT 33.5-36.2 min, 1.3% of total CEX area; also called most basic fraction BP3

biological target: T2, FcRn (Homo sapiens (Human), UniProt P55899 24-297; P61769 21-119); test: SPR, FcRn binding
T2 construct: In nature it is a heterodimer of the FcRn alpha chain and beta-2-microglobulin; also called neonatal Fc receptor; copies: 1 + 1
T2 sequence (P55899 24-297 limits assumed, form in doubt, chain 1 of 2): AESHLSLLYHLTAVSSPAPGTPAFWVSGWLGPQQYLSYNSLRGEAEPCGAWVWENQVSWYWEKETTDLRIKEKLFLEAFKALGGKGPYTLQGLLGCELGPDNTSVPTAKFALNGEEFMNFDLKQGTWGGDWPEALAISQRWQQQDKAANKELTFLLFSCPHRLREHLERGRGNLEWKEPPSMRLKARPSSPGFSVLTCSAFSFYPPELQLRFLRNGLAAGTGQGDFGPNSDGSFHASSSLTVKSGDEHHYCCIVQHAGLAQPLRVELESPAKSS
T2 sequence (P61769 21-119 limits assumed, form in doubt, chain 2 of 2): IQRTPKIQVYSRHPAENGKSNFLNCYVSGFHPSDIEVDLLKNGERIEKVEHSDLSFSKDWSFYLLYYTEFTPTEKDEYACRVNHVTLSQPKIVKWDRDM

Row | Binder | Binding [%] (FcRn binding, SPR)
1 | B1 | 69%
2 | B2 | 92%
3 | B3 | 84%
4 | B4 | 89%
5 | B5 | 91%
6 | B6 | 95%
7 | B7 | 94%
8 | B8 | 95%
9 | B9 | 90%
10 | B10 | 88%

biological target: T3, protein A/G (immobilized on the SPR sensor chip); test: SPR, first step: capture on protein A/G immobilized on the sensor chip
T3 construct: Capture protein in the first step of the IL36R SPR assay; also called protein A/G sensor chip

Row | Binder | Recovery [%] (amount of species binding to protein A/G)
11 | B1 | 75%
12 | B2 | 93%
13 | B3 | 87%
14 | B4 | 92%
15 | B5 | 84%
16 | B11 | 90%
17 | B12 | 70%
18 | B6 | 95%
19 | B7 | 93%
20 | B8 | 93%
21 | B9 | 90%
22 | B10 | 88%

biological target: T1, IL-36 receptor (IL-36R); test: SPR, second step: IL36R binding activity of the species bound to protein A/G

Row | Binder | Potency [%] (IL36R binding, SPR)
23 | B1 | 93%
24 | B2 | 99%
25 | B3 | 93%
26 | B4 | 100%
27 | B5 | 100%
28 | B11 | 99%
29 | B12 | 100%
30 | B6 | 102%
31 | B7 | 101%
32 | B8 | 100%
33 | B9 | 100%
34 | B10 | 98%

biological target: T1, IL-36 receptor (IL-36R); test: cell-based or functional assay

Row | Binder | IL36R bioassay Potency [%]
35 | B1 | 60%
36 | B2 | 102%
37 | B3 | 80%
38 | B4 | 99%
39 | B5 | 97%
40 | B11 | 94%
41 | B6 | 110%
42 | B7 | 91%
43 | B8 | 97%
44 | B9 | 102%
45 | B10 | 91%
